Assay results: paper PMC10790359, “System for Self-excited Targeted Photodynamic Therapy Based on the Multimodal Protein DARP-NanoLuc-SOPP3” (Acta Naturae, 2023)

Molecular target: T1, HER2 (human epidermal growth factor receptor type II) (human (endogenous in SKOV3.ip1), UniProt P04626 23-1255)
T1 construct: HER2, human epidermal growth factor receptor type II, on the surface of human ovarian adenocarcinoma SKOV3.ip1 / SKOV3.ip1-Kat cells; also called HER2 receptor; HER2 tumor marker; source: endogenous, on SKOV3.ip1 and SKOV3.ip1-Kat cells (HER2 overexpression)
Assay: flow cytometry on cells; cells incubated with 300 nM DARP-NanoLuc-SOPP3-AF488 conjugate in complete growth medium for 10 min at 37°C, washed thrice with phosphate-buffered saline; HER2-positive SKOV3.ip1-Kat cells; control: unlabelled cells
Details: one partner purified

B1: DARP-NanoLuc-SOPP3 (designed binder)
chain: MDLGKKLLEAARAGQDDEVRILMANGADVNAHDFYGITPLHLAANFGHLEIVEVLLKHGADVNAFDYDNTPLHLAADAGHLEIVEVLLKYGADVNASDRDGHTPLHLAAREGHLEIVEVLLKNGADVNAQDKFGKTAFDISIDNGNEDLAEILQEFPKPSTPPGSSGGAMVFTLEDFVGDWRQTAGYNLDQVLEQGGVSSLFQNLGVSVTPIQRIVLSGENGLKIDIHVIIPYEGLSGDQMGQIEKIFKVVYPVDDHHFKVILHYGTLVIDGVTPNMIDYFGRPYEGIAVFDGKKITVTGTLWNGNKIIDERLINPDGSLLFRVTINGVTGWRLCERILAGGGGSGSEKSFVITDPRLPDNPIIFASDGFLELTEYSREEILGRNGRFLQGPETDQATVQKIRDAIRDQREITVQLINYTKSGKKFLNLLNLQPIRDQKGELQAFIGVQVDGKLAAALE
modifications: conjugated with N-hydroxysuccinimide esters of dyes (AF488 or Cy5.5) for flow cytometry and confocal microscopy; legends and results call the green conjugate FITC; labelled residues not stated
notes: DARPin_9-29, HER2-specific targeting module; NanoLuc luciferase (engineered), amplified from plasmid pNL1.1.CMV (Promega); SOPP3 phototoxic flavoprotein (a miniSOG analogue, engineered), amplified from pET24-SOPP3; vector-derived residues between SOPP3 and the C-terminal HHHHHH of the printed chain; cytotoxicity assays used the protein without a dye; also called DARPin-NanoLuc-SOPP3; …
- fold shift in the median fluorescence of conjugate-treated cells compared to the control: ~100 fold
